The record followed here is publication PMC3699631, “Posttranslational Modifications of the Histone 3 Tail and Their Impact on the Activity of Histone Lysine Demethylases In Vitro” (PLoS ONE, 2013).

In the assay the target is T1, human FL-KDM4A (Homo sapiens, UniProt O75164).
T1 construct: along with the full length FL- KDM4C and FL-KDM4A using various synthetic histone tail peptides as substrates; His6 (N); made in house; host or cells: High Five (Trichoplusia ni) insect cells, baculovirus
T1 sequence (O75164 1-1064): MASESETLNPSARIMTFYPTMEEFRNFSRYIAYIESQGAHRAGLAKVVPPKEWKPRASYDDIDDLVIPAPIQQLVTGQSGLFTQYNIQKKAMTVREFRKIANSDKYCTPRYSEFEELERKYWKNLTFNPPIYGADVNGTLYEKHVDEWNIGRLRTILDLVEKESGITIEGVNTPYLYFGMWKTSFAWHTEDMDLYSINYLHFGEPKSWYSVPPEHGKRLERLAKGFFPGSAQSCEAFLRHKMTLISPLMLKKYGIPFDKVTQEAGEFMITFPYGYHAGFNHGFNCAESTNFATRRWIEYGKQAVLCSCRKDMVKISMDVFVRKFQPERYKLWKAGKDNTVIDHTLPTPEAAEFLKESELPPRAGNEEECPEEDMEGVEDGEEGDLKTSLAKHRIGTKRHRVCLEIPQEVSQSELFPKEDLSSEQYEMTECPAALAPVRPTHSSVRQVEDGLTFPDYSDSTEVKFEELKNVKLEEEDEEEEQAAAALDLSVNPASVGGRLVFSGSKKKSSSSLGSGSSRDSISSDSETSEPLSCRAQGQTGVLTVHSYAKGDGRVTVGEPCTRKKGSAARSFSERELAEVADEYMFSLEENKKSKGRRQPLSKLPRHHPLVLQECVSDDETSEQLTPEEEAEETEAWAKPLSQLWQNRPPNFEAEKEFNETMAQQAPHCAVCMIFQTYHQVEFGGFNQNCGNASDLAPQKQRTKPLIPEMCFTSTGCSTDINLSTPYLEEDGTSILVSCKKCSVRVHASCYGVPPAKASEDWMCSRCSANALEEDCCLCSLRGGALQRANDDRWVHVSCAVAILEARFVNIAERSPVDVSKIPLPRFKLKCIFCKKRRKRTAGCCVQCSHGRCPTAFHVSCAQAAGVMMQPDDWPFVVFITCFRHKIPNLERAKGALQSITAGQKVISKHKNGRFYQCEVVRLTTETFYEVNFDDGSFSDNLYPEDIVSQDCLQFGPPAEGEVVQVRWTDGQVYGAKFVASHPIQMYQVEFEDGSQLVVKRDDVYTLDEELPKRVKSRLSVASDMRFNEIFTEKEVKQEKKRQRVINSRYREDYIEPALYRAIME
In words: FDH-assay enzyme kinetics of H3 peptide demethylation, full length KDM4A. The format is biochemical. Set-up: key to K m / k cat / k cat /K m: 0 means no demethylation could be detected. Particulars: for demethylation / catalytic activity (in words) / K m / k cat / k cat /K m: FDH-assay; for K m: 50 mM HEPES (pH 7.5), 50 mM NaCl, 50 µM FeSO4, 500 µM α-KG, 500 µM ascorbate, 2 mM NAD, substrate 10–1000 µM, NADH fluorescence 15–30 minutes; for K m / k cat: triplicate; for k cat: pH 7.5, NADH fluorescence; for k cat /K m: pH 7.5, triplicate. On the procedure:
The enzyme kinetics were measured using a Formaldehyde DeHydrogenase Assay (FDH-Assay) and the demethylation of substrates was confirmed when possible by MALDI-TOF-MS, see File S1 for details. The test solution contained 50 mM HEPES (pH 7.5), 50 mM NaCl, 50 µM FeSO4, 500 µM α-KG, 500 µM ascorbate, 2 mM NAD, approximately 0.05 unit of FDH and e.g. 4.88 µM KDM4C (enzyme concentration varied between batches). The reference solution was comprised of the same except substrate. The assay was initiated by adding various concentrations of H3 peptide substrates e.g. H3(1–24)K9me3 (10–1000 µM) and the increase in NADH fluorescence was measured over 15–30 minutes in 30 second intervals. Data analysis and kinetic values were obtained using programs Excel and GraphPad Prism® 5.0. For details, see File S1.
The standard deviations for k cat/K m were calculated using the statistic law of propagation of errors. Standard errors for Michaelis-Menten Kinetics were automatically given in GraphPad Prism®, with a 95% confidence interval. All enzyme kinetic curves were done in triplicate unless otherwise stated.
Test for activity of enzyme using the fluorescence FDH assay, determination of Vmax and Km of enzymes with substrate, expression and purification of cc-KDM4A and cc-KDM4C software and parameters for the FDH coupled assay, see Lohse et al.^21
Recombinant baculoviridae encoding the full Open Reading Frame (ORF) of FL-KDM4A and FL-KDM4C were generously donated from the Biotech Research and Innovation Centre (BRIC), University of Copenhagen, Denmark. Recombinant protein was expressed by adding High Titer Stocks to High Five (Trichopulsia ni) insect cells in suspension culture. The cell cultures were harvested by centrifugation after ~ 60 hours and the cells were resuspended in hypotonic buffer (25 mM Hepes-KOH, pH 7.7, 1.5 mM MgCl, 5 mM KCl) supplemented with one protease inhibitor cocktail tablet per 500 ml expression (Roche, EDTA-free). The resuspended cells were frozen at -20 °C.
Both proteins were purified by IMAC using Talon FF (Clontech) cobalt resin according to the following protocol; resuspended cells were thawed on ice, 100 ml hypotonic buffer was added per 500 ml expression volume and the cells were incubated with stirring for 30 min. at 4 °C, followed by a brief (30 s per 500 ml culture volume) sonication. β-mercaptoethanol (BME, 2 mM final concentration), Triton X-100 (0.2 % final concentration) and NaCl (300 mM final concentration) were added and the cell suspension was stirred for another 30 min at 4 °C. The lysate was cleared by centrifugation at 50.000 g for 60 minutes. The cleared lysates were adjusted to 5 mM imidazole and incubated with Talon resin (1 ml /500 ml expression) for 60 minutes. The resin was allowed to sediment, the lysate removed and the resin was transferred to PD-10 gravity flow columns (GE Healthcare). The resin was washed with 10 column volumes of binding buffer (50 mM Hepes-KOH, pH 7.7, 300 mM NaCl, 5 mM imidazole, 10% glycerol, 0.05 % Triton X-100, 2 mM BME) and eluted with 2 x 2.5 ml elution buffer (50 mM Hepes-KOH, pH 7.7, 300 mM NaCl, 100 mM imidazole, 10 % glycerol, 0.05 % Triton X-100, 2 mM BME). Each eluted fraction has its buffer changed to 50 mM Hepes pH 7.5, 300 mM NaCl, 10 % glycerol using a PD-10 desalting column. The protein was concentrated to 6-7 mg/ml (FL-KDM4A) or 10-12 mg/ml (FL-KDM4C). Despite the buffer change it is likely that small amounts of Triton X-100 remained in the protein samples. Triton X-100 has a significant absorbance at 280 nm, so the protein concentration was determined by Bradford assay using a BSA standard curve. The protein purity was approximately 70 % as judged from SDS-PAGE. The concentrated protein was aliquoted and stored at -80 °C until assays were performed.
The standard deviations for kcat/ Km were calculated using the statistic law of propagation of errors. […]

Setting [1] is: SD by propagation of errors, unit: (min^−1 * µM^−1) * 10^3.

“Also recorded” adds a separate entry of the source.

As to “H3(1–24)K9me3T11(ph): H3(1–24)K9me3 with phosphorylation of threonine 11”, the “demethylation / catalytic activity (in words)” value is given as “no detectable turnover”, the K m is recorded as 0 and the k cat worked out at 0. Also, the “k cat /K m” value under setting [1] was determined as 0.

Turning to “H3(1–24)K9me3: truncated histone tail, 24 first amino acids from the N-terminus of H3, trimethylated lysine 9; control peptide”, the “demethylation / catalytic activity (in words)” value is on record as “preference for the H3K9me3 over the H3K9me2” and the K m amounted to 122±31. Besides, under setting [1], the “k cat /K m” value amounted to 3.1±0.3. Further, the “k cat /K m” value (figures) came to 3 ± 0.4 min^-1 * μM^-1 * 10^3.

In the case of “H3(1–24)K9me2: truncated histone tail, 24 first amino acids from the N-terminus of H3, dimethylated lysine 9”, the “demethylation / catalytic activity (in words)” value was “too low to be detected; also recorded: could not be detected”, the K m is given as 0 and the k cat stood at 0. For the same substance, the “k cat /K m” value under setting [1] was 0.

As for “H3(1–24)K4me3K9me3: bis-tri-methylated substrate, trimethylated K4 in combination with H3K9me3”, the “demethylation / catalytic activity (in words)” value is “an increase in FL-KDM4A demethylation activity, which is significantly higher compared to cc-KDM4A”; the K m is recorded as 45±9; the k cat is 2.2±0.3. Moreover, the “fold increase in k cat/K m” value (compared to H3(1–24)K9me3) was 17 fold. Besides, the “k cat /K m” value (figures) was found to be 50 ± 9 min^-1 * μM^-1 * 10^3.
